The results in this text go back to PMC12866752 (2025).

Sequences and labels used below:
B2: recombinant ectodomain of human IFN-λ receptor 1 (hIFN-λR1) (receptor)
chain: RPRLAPPQNVTLLSQNFSVYLTWLPGLGNPQDVTYFVAYQSSPTRRRWREVEECAGTKELLCSMMCLKKQDLYNKFKGRVRTVSPSSKSPWVESEYLDYLFEVEPAPPVLVLTQTEEILSANATYQLPPCMPPLDLKYEVAFWKEGAGNKTLFPVTPHGQPVQITLQPAASEHHCLSARTIYTFSVPKYSKFSKPTCFLLEVPEANWA

Assay in all cases: SPR
Assay [1] addresses B2.
The target in assay [2] is B2.
Assay [3] deals with designed human interferon-λ3 variant hIFN-λ3-DE1, His-tagged (human, UniProt Q8IZI9).

B1: wild-type human interferon-λ3 (hIFN-λ3-WT), His-tagged (ligand)
chain: VPVARLRGALPDARGCHIAQFKSLSPQELQAFKRAKDALEESLLLKDCKCRSRLFPRTWDLRQLQVRERPVALEAELALTLKVLEATADTDPALGDVLDQPLHTLHHILSQLRACIQPQPTAGPRTRGRLHHWLHRLQEAPKKESPGCLEASVTFNLFRLLTRDLNCVASGDLCV
Broadly, the koff is the rate constant with which the complex falls apart. What is called Kd is the concentration at which binding is half-saturated. Take B1: the koff in assay [1] was determined as 0.0183 s⁻¹. The Kd in assay [2] was found to be 7.67 nM.

In assay [3], B2 showed a Kd of 6.61 nM and a koff of 0.0244 s⁻¹.
